The text below walks through data of patent US20190203210A1.

The first data set deals with FLAG-Atoh1.
Assay: not given
Regarding Myc-Huwe1 C4341A, the “wild-type and K48 poly-ubiquitylated Atoh1” value was “The resulting decrease in both wild-type and K48 poly-ubiquitylated Atoh1”.

The target of another data set is FLAG-HA-Atoh1 (UniProt Q92858).
Assay: not given
For the substance “HECT, UBA and WWE domain containing 1 (Huwe1) protein”, the “poly-ubiquitylation of Atoh1 after Huwe1 knockdown (shRNA)” value is “decreased poly-ubiquitylation was observed after Huwe1 knockdown”.

A further data set deals with FLAG-HA-Atoh1 (UniProt Q92858). Put plainly: MS of 450 kDa Coomassie band from FLAG-HA-Atoh1 IP.
As for MACF1 (from UniProt Q9UPN3 1-7388), the Total peptide was 51 and the Unique peptide is 50.

As to “PRKDC (from UniProt P78527 1-4128) (enzyme)”, the Total peptide stood at 161 and the Unique peptide was found to be 112.

The substance “RNF213 (from UniProt Q63HN8 1-5207) (enzyme)” showed a Total peptide of 32 and a Unique peptide of 30.

In the case of GOLGB1 (from UniProt Q14789 1-3259), the Total peptide is 12 and the Unique peptide was 10.

KIF11 (from UniProt P52732 1-1056) gave a Total peptide of 79 and a Unique peptide of 46.

For the substance SRRM2 (from UniProt Q9UQ35 1-2752), the Total peptide was 53 and the Unique peptide came out at 38.

“HERC2 (from UniProt O95714 1-4834) (enzyme)” had a Total peptide of 36 and a Unique peptide of 34.

Turning to “HECT, UBA and WWE domain containing 1 (Huwe1) protein, Q7Z6Z7 1-4374”, the Total peptide turned out to be 279 and the Unique peptide is 122.

DMXL1 (from UniProt Q9Y485 1-3027) gave a Total peptide of 13 and a Unique peptide of 12.

Substance “UBR5 (from UniProt O95071 2-2799) (enzyme)” returned a Total peptide of 31 and a Unique peptide of 26.

As to PRRC2C (from UniProt Q9Y520 1-2896), the Total peptide was determined as 26 and the Unique peptide was 21.

For PLEC (from UniProt Q15149 1-4684), the Total peptide worked out at 17 and the Unique peptide amounted to 16.

Turning to DYNC1H1 (from UniProt Q14204 2-4646), the Total peptide is 87 and the Unique peptide was 75.

Substance UTRN (from UniProt P46939 1-3433) had a Total peptide of 30 and a Unique peptide of 30.

For AKAP9 (from UniProt Q99996 1-3907), the Total peptide amounted to 26 and the Unique peptide was found to be 26.

Take CEP350 (from UniProt Q5VT06 1-3117): the Total peptide came out at 23 and the Unique peptide turned out to be 21.

Take SON (from UniProt P18583 2-2426): the Total peptide turned out to be 22 and the Unique peptide was determined as 20.

SACS (from UniProt Q9NZJ4 1-4579) yielded a Total peptide of 12 and a Unique peptide of 12.

Regarding “MYCBP2 (from UniProt O75592 1-4678) (enzyme)”, the Total peptide came to 51 and the Unique peptide is 47.

The substance MGA (from UniProt Q8IWI9 1-3065) displayed a Total peptide of 29 and a Unique peptide of 27.

Substance MAP1A (from UniProt P78559 1-2803) yielded a Total peptide of 15 and a Unique peptide of 14.

As to TRRAP (from UniProt Q9Y4A5 2-3859), the Total peptide worked out at 12 and the Unique peptide was 12.

Regarding MAP1B (from UniProt P46821 2-2468), the Total peptide came out at 133 and the Unique peptide turned out to be 78.

Regarding MDN1 (from UniProt Q9NU22 1-5596), the Total peptide worked out at 41 and the Unique peptide is 37.

The target in the next data set is FLAG-HA-Atoh1 (UniProt Q92858). Put plainly: anti-HA IP of FLAG-HA-Atoh1 293T lysate, LC-MS/MS, ComPASS.
In turn, PRDX4 (from UniProt Q13162 38-271) registered a D^N Score of 1.23 and a Z score of 4.6.

Turning to PDE4D (from UniProt Q08499 1-809), the D^N Score is 1.41 and the Z score amounted to 5.71.

FHL3 (from UniProt Q13643 2-280) gave a D^N Score of 1 and a Z score of 5.16.

Consider TUBA1C (from UniProt Q9BQE3 1-449), for which the D^N Score was 1.39 and the Z score was 2.88.

BCKDHA (from UniProt P12694 46-445) had a D^N Score of 2 and a Z score of 5.54.

In turn, TUBB2B (from UniProt Q9BVA1 1-445) yielded a D^N Score of 2.58 and a Z score of 4.36.

Consider SEC23A (from UniProt Q15436 2-765), for which the D^N Score was determined as 1.23 and the Z score is 5.24.

Consider “NEK9 (from UniProt Q8TD19 2-979) (enzyme)”, for which the D^N Score turned out to be 2.83 and the Z score came out at 5.54.

As to “USP47 (from UniProt Q96K76 1-1375) (enzyme)”, the D^N Score came out at 2 and the Z score came out at 5.54.

In turn, FLNC (from UniProt Q14315 1-2725) displayed a D^N Score of 1.15 and a Z score of 5.21.

As for SRI (from UniProt P30626 1-198), the D^N Score turned out to be 1.41 and the Z score worked out at 5.71.

As to EIF2C3 (from UniProt Q9H9G7 1-860), the D^N Score was found to be 1 and the Z score amounted to 5.16.

ZYX (from UniProt Q15942 2-572) yielded a D^N Score of 1.58 and a Z score of 5.48.

The substance CPOX (from UniProt P36551 111-454) displayed a D^N Score of 2 and a Z score of 5.54.

ENAH (from UniProt Q8N8S7 1-591) showed a D^N Score of 1.41 and a Z score of 5.71.

In turn, SEC23B (from UniProt Q15437 2-767) yielded a D^N Score of 1 and a Z score of 5.03.

Substance EIF2C2 (from UniProt Q9UKV8 1-859) yielded a D^N Score of 3.16 and a Z score of 5.72.

In turn, PDXK (from UniProt O00764 1-312) registered a D^N Score of 1.41 and a Z score of 5.71.

TCF3 (from UniProt P15923 1-654) came in with a D^N Score of 3.16 and a Z score of 5.57.

Turning to EIF2C1 (from UniProt Q9UL18 1-857), the D^N Score amounted to 1 and the Z score turned out to be 5.16.

Turning to CCDC124 (from UniProt Q96CT7 1-223), the D^N Score was 1 and the Z score turned out to be 5.03.

Substance AHSA1 (from UniProt O95433 1-338) yielded a D^N Score of 1 and a Z score of 5.03.

Regarding TUBA4A (from UniProt P68366 1-448), the D^N Score stood at 3 and the Z score was found to be 3.77.

Regarding “HECT, UBA and WWE domain containing 1 (Huwe1) protein, Q7Z6Z7 1-4374”, the D^N Score was 1.5 and the Z score turned out to be 5.56.

Take NT5DC2 (from UniProt Q9H857 1-520): the D^N Score came out at 2 and the Z score is 5.71.

In turn, YARS2 (from UniProt Q9Y2Z4 17-477) yielded a D^N Score of 1.41 and a Z score of 5.71.

ATP2A1 (from UniProt O14983 1-1001) registered a D^N Score of 1.41 and a Z score of 5.71.

Take SLC3A2 (from UniProt P08195 2-529): the D^N Score stood at 1.41 and the Z score is 5.71.

Take CTPS2 (from UniProt Q9NRF8 1-586): the D^N Score is 2.45 and the Z score stood at 5.6.

In turn, “USP11 (from UniProt P51784 1-963) (enzyme)” had a D^N Score of 1.41 and a Z score of 5.42.

Substance SERPINH1 (from UniProt P50454 19-418) had a D^N Score of 1 and a Z score of 3.92.

TCF12 (from UniProt Q99081 1-682) gave a D^N Score of 2.45 and a Z score of 5.71.

Take TNRC6C (from UniProt Q9HCJ0 1-1936): the D^N Score was 2 and the Z score amounted to 5.71.

AAMP (from UniProt Q13685 1-434) displayed a D^N Score of 1 and a Z score of 5.03.

Substance “MAPK3 (from UniProt P27361 2-379) (enzyme)” showed a D^N Score of 2 and a Z score of 5.71.

ACOX1 (from UniProt Q15067 1-660): the D^N Score was 1.41 and the Z score worked out at 5.71.

In turn, GFAP (from UniProt P14136 1-432) returned a D^N Score of 2.45 and a Z score of 5.71.

For the substance PRPS1 (from UniProt P60891 2-318), the D^N Score turned out to be 1.23 and the Z score was found to be 4.6.
